Measured values reported in PMC3535332 (Nature Communications, 2012).

Assays:
purified protein [1] = substrate: NC(=O)c1ccc[n+]([C@@H]2O[C@H](COP(=O)(O)OP(=O)(O)OC[C@H]3O[C@@H](n4cnc5c(N)ncnc54)[C@H](O)[C@@H]3O)[C@@H](O)[C@H]2O)c1; assay: purified protein; settings: ATP as donor, 20 mM MgCl2, 100 mM Tris-HCl pH 8.0, 37 °C
purified protein [2] = substrate: Nc1ncnc2c1ncn2[C@@H]1O[C@H](COP(=O)(O)OP(=O)(O)OP(=O)(O)O)[C@@H](O)[C@H]1O; assay: purified protein; settings: 5 mM NAD+, 40 mM MgCl2, 100 mM Tris-HCl pH 8.0, 37 °C
SEC = target: the molecule itself; assay: SEC

B1: purified C5orf33 protein (His-tagged Δ62C5orf33 protein) (enzyme, human, UniProt Q4G0N4-1 63-442, looked up)
chain: DGGFRPSRVVVVAKTTRYEFEQQRYRYAELSEEDLKQLLALKGSSYSGLLERHHIHTKNVEHIIDSLRNEGIEVRLVKRREYDEETVRWADAVIAAGGDGTMLLAASKVLDRLKPVIGVNTDPERSEGHLCLPVRYTHSFPEALQKFYRGEFRWLWRQRIRLYLEGTGINPVPVDLHEQQLSLNQHNRALNIERAHDERSEASGPQLLPVRALNEVFIGESLSSRASYYEISVDDGPWEKQKSSGLNLCTGTGSKAWSFNINRVATQAVEDVLNIAKRQGNLSLPLNRELVEKVTNEYNESLLYSPEEPKILFSIREPIANRVFSSSRQRCFSSKVCVRSRCWDACMVVDGGTSFEFNDGAIASMMINKEDELRTVLLEQ
Km (purified protein [1]): 22 ± 1 µM | Km (purified protein [2]): 1700 ± 300 µM | stoichiometry N (SEC): 2
